Data as given in patent US20160082105A1, “Antibody Buffering of a Ligand in Vivo” (ARROWSMITH TECHNOLOGIES CORPORATION, priority 2004, published 2016).

What was measured:
[1] = Antibody buffering of lysozyme: free lysozyme in plasma after Protein A-Sepharose separation; format: in vivo, rat; conditions: lysozyme administered with D1.3, compared with lysozyme alone
Method: (§1) Rats (300 g Sprague-Dawley males, Zivic Laboratories, Zelionople, Pa.) were implanted with a jugular vein cannula. The rats were freely moving throughout the experiment and were allowed access to food and water. Samples were prepared for infusion consisting of 43 μg ^14C-lysozyme with or without 450 μg D1.3 antibody. The volume was brought to 1 ml using sterile normal saline and the sample was incubated at 37° C. prior to use. The sample was infused through the jugular cannula over 5 minutes using an HP infusion pump. Following the infusion, the cannula was flushed with 0.2 ml of heparinized saline (250 units/ml) to reduce the risk of clotting. […] Blood samples (0.5 ml) were withdrawn from the cannula at various timepoints. The blood was immediately centrifuged to separate out the plasma. Plasma (0.1 ml) was mixed with 5 ml scintillation fluid and counted. Another 0.1 ml was used in bound vs. free lysozyme experiments described herein. The cellular pellet was mixed with scintillation fluid and counted also.
Following blood sample centrifugation to separate out the plasma, 0.1 ml of plasma was loaded onto a 1.5 ml Protein A-Sepharose mini-column. The column was washed with 3 ml of PBS in 0.5 ml increments followed by 3 ml of 100 mM citric acid in 0.5 ml increments. The PBS (free lysozyme) and citric acid (antibody-bound lysozyme) fractions were collected separately for each timepoint. […]

[2] = Antibody buffering of lysozyme: total 14C-lysozyme in rat plasma; format: in vivo
Method: as §1
Sprague-Dawley rats implanted with a jugular cannula were infused with 43 μg ^14C-lysozyme and either 450 μg or 900 μg of D1.3 antibody. The volume infused was brought up to 1 ml using sterile normal saline. The samples were prepared and infused and timepoints were taken and analyzed as described above. Bound vs. free separation analyses were not performed.
Sprague-Dawley rats implanted with a jugular cannula were infused with 450 μg of D1.3 antibody and either 43 μg or 430 μg of ^14C-lysozyme. The samples were prepared, infused, and timepoints were taken and analyzed as described above.
Two samples were prepared for infusion. The first sample, consisting of 450 μg D1.3 antibody diluted to 0.5 ml with sterile normal saline, was infused over 4 minutes using an HP infusion pump. The rat was allowed to move freely in its cage for 10 minutes to allow the antibody time to equilibrate within the circulation. Then the second sample, consisting of 43 μg ^14C-lysozyme made up to 0.5 ml using sterile normal saline, was infused over 4 minutes. The end of the second infusion was designated as time zero (0). Blood samples were taken and analyzed as described above.
To determine the pharmacokinetic profile of lysozyme using a radioactive method of lysozyme detection, ^14C-lysozyme was infused through a jugular cannula into the bloodstream of a rat. Lysozyme elimination was followed through blood sampling at various time intervals spanning 4 hours. The plasma was collected after centrifugation and subjected to scintillation counting. […] Each rat in these and in the following studies was used only once to limit the possibility of an immune response to either the lysozyme or the antibody.

lysozyme: hen egg lysozyme radioactively labeled with 14C, model protein ligand
free lysozyme pool in plasma [1]: remained at a more constant level
plasma β-half life of lysozyme ([2]; 14C-lysozyme administered alone, jugular infusion): 16.4 min
radioactivity in the cellular pellet of blood ([2]; 14C-lysozyme alone or with D1.3): Little radioactivity
plasma β-half life of lysozyme ([2]; 14C-lysozyme with equimolar D1.3): 42.8 min
plasma β-half life of lysozyme ([2]; 14C-lysozyme with two times the molar amount of D1.3): 61.3 min
total lysozyme level in plasma at later timepoints relative to equimolar group ([2]; D1.3 with ten times the molar concentration of 14C-lysozyme): about twice as high
total lysozyme concentration in plasma after sequential administration ([2]; equimolar lysozyme infused ten minutes after D1.3): quickly equilibrated to a level very similar to that attained when the D1.3 and lysozyme were administered together
